# From patent US20180016313A1 (MEDPACTO, published 2018)
# T1: mouse LRP6 (mLRP6) protein (Cat. No. 2960-LR-025, R&D, USA) (mouse, UniProt O88572 20-1370, limits assumed)
# T1 construct: Coated on the ELISA plate
# T1 sequence (looked up): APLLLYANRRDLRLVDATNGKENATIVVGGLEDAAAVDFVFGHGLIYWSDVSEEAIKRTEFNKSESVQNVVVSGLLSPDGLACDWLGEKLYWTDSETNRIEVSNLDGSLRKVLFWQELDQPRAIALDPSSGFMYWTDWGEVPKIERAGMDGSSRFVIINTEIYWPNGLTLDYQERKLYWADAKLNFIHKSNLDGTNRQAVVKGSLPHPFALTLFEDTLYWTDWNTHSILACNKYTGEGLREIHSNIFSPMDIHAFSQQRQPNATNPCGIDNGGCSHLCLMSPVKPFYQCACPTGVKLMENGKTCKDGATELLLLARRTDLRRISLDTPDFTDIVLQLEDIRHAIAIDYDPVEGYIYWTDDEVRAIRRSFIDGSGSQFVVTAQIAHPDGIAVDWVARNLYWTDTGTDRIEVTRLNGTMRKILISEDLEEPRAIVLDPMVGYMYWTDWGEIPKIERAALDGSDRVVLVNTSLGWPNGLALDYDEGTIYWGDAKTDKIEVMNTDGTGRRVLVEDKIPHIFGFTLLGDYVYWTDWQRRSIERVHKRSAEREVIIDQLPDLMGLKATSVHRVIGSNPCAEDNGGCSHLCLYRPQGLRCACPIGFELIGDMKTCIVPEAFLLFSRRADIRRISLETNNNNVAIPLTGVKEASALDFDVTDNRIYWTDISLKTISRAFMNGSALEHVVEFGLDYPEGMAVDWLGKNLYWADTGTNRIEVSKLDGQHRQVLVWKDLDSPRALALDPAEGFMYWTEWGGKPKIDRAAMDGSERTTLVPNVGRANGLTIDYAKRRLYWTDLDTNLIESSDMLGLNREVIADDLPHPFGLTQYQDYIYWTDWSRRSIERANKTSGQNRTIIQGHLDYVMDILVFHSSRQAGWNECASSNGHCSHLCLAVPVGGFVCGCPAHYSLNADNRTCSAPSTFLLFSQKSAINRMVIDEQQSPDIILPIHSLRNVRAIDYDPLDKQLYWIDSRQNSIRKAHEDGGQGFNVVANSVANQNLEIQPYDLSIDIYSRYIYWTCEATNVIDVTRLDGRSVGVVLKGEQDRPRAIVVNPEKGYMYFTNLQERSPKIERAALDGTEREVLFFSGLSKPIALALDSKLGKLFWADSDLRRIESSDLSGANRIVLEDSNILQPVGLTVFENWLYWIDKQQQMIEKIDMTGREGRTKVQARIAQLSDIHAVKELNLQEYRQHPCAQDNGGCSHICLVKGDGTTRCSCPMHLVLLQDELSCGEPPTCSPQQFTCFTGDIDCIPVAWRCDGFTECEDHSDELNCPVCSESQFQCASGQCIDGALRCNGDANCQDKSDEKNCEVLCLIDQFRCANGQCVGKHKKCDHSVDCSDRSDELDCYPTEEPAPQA
# T2: human LRP6 (hLRP6) protein (Cat. No. 1505-LR-025, R&D, USA) (human, UniProt O75581 20-1368, limits assumed)
# T2 construct: Coated on the ELISA plate
# T2 sequence (looked up): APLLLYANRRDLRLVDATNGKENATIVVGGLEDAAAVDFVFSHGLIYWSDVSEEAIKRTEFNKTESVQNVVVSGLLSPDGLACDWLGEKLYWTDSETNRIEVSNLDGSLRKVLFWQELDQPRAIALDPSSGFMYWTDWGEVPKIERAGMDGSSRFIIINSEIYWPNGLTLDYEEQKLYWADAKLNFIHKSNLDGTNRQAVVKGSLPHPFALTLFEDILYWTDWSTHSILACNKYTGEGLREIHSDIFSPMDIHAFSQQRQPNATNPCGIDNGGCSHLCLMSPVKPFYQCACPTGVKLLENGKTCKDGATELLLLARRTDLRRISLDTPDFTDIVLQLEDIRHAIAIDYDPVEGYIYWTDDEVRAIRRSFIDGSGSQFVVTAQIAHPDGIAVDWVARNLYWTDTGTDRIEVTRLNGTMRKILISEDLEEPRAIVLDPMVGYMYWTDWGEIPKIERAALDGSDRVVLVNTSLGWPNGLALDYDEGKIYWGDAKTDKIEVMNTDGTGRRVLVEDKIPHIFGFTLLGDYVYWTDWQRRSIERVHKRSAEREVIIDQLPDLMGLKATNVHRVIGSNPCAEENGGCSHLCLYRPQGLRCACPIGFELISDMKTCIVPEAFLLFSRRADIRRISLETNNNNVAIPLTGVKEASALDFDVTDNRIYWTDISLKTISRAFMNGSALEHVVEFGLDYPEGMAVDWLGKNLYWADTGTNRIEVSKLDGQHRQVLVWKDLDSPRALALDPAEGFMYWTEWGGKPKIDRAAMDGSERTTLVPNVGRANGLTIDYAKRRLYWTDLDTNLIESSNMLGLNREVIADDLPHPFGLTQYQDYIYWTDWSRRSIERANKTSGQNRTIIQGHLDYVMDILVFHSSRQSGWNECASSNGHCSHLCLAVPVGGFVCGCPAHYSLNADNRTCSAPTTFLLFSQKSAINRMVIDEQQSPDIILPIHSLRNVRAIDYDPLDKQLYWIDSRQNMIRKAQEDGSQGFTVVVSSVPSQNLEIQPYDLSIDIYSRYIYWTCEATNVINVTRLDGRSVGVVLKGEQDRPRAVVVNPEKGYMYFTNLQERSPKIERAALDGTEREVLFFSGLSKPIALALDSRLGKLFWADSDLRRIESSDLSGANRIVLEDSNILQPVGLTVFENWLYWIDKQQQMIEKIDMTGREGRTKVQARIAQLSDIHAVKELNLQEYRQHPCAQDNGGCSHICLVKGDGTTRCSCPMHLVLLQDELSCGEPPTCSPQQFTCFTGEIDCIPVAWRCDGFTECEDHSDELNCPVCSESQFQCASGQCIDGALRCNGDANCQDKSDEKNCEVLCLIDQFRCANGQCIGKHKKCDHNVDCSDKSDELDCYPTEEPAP
# B1: wild-type DKK2 (Cat. No. 6628-DK-010, R&D, USA) (ligand)
# chain: KLNSIKSSLGGETPGQAANRSAGMYQGLAFGGSKKGKNLGQAYPCSSDKECEVGRYCHSPHQGSSACMVCRRKKKRCHRDGMCCPSTRCNNGICIPVTESILTPHIPALDGTRHRDRNHGHYSNHDLGWQNLGRPHTKMSHIKGHEGDPCLRSSDCIEGFCCARHFWTKICKPVLHQGEVCTKQRKKGSHGLEIFQRCDCAKGLSCKVWKDATYSSKARLHVCQKI
# notes: Bought protein; also called wild-type DKK2 protein
# How the values were obtained:
# [1] = biological target: T1, mouse LRP6 (mLRP6) protein (Cat. No. …); assay: ELISA, 100 ng mLRP6 coated, DKK2 protein diluted serially from 100 nM, KD calculated from absorbance at 490 nm
# Method: (§1) Each purified DKK2 protein and 100 μl of 1% (w/v) skim milk/1×PBS were mixed to prepare 100 nM of DKK2 protein, and 100 nM of DKK2 protein was subjected to ¼ serial dilution. The diluted protein was applied to the prepared ELISA plate, and incubated at room temperature for about 2 hours. Thereafter, the plate was washed with 200 μl of PBST five times.
# (§2) 2 μl of anti-Human Fc-HRP (Cat. No. 31413, Thermo, USA) antibody was mixed with 4 ml of PBS containing 1% (w/v) skim milk, and 200 μl of this mixture was added to each well of ELISA plate and incubated at room temperature for 1 hour. Thereafter, the secondary antibody of the ELISA plate was removed, and the plate was washed with 200 of PBS five times. 10 μl of H₂O₂ solution (Cat. No. H1009-100ML, Sigma, USA), 10 ml of PC buffer (5.1 g of citric acid monohydrate, 7.3 g of sodium phosphate/L (pH 5.0)), and one tablet of OPD (Cat. No. P8787-100TAB, Sigma, USA) were mixed to prepare a mixture, and a total volume of 100 μl of the mixture was added to each well. Incubation was performed at room temperature in the dark for 10 minutes, followed by color development. Thereafter, 50 μl of a stop buffer was added to each well to terminate the color development. Absorbance at 490 nm was measured using an ELISA reader, and a dissociation constant KD value (M) was calculated from the measured absorbance. […]
# [2] = biological target: T2, human LRP6 (hLRP6) protein (Cat. No. …); assay: ELISA, 100 ng hLRP6 coated, DKK2 protein diluted serially from 100 nM, KD calculated from absorbance at 490 nm
# Method: as §1, §2
binder,measurement,setting,value
B1,Kd,[1],270 nM
same,Kd,[2],90 nM
